Measured values: patent publication US8242083B2, “Kinase substrates” (PerkinElmer Health Sciences, Inc., priority 2008, dated 2012)

Experiments:
Type in all cases: biochemical
MET = MET (Homo sapiens, UniProt P08581); assay: TR-FRET kinase assay, MET; settings: Kinase Concentration 0.5 nM; 50 nM ULight-labeled substrate, 200 micromolar ATP, 2 hours
Protocol: (§1) TR-FRET kinase assays are performed under standardized conditions: various individual kinases are incubated with 50 nM of kinase substrate BRB1 labeled with the TR-FRET acceptor dye ULight (PerkinElmer) and 200 micromolar ATP in 10 μL of kinase assay buffer (50 mM HEPES pH7.5, 10 mM MgCl2, 3 mM MnCl2, 1 mM EGTA, 2 mM DTT and 0.01% Tween-20) for 2 hours at room temperature. Reactions are stopped with EDTA, and anti-phospho-tyrosine antibodies (clone PT66) labeled with the TR-FRET europium chelate donor dye are added to a final concentration of 2 nM in a final volume of 20 μL. The TR-FRET signal emitted at 665 nm is read one hour after the addition of antibodies using a TR-FRET plate reader such as the Envision® Multilabel Plate reader (PerkinElmer). The emitted signal at 665 nm is proportional to the extent of peptide phosphorylation, Control reactions indicative of background are performed excluding ATP from the reaction.
(§2) Assay conditions are identical to those used described for FIG. 1.

SYK = SYK (Homo sapiens, UniProt P43405); assay: TR-FRET kinase assay, SYK; settings: Kinase Concentration 0.5 nM; 50 nM ULight-labeled substrate, 200 micromolar ATP, 2 hours
Protocol: as §1, §2

ABL = ABL (Homo sapiens, UniProt P00519); assay: TR-FRET kinase assay, ABL; settings: Kinase Concentration 0.25 nM; 50 nM ULight-labeled substrate, 200 micromolar ATP, 2 hours
Protocol: as §1, §2

JAK2 = JAK2 (Homo sapiens, UniProt O60674); assay: TR-FRET kinase assay, JAK2; settings: Kinase Concentration 1 nM; 50 nM ULight-labeled substrate, 200 micromolar ATP, 2 hours
Protocol: as §1, §2

BLK = BLK (Homo sapiens, UniProt P51451); assay: TR-FRET kinase assay, BLK; settings: Kinase Concentration 0.5 nM; 50 nM ULight-labeled substrate, 200 micromolar ATP, 2 hours
Protocol: as §1, §2

TRKB (NTRK2) = TRKB (NTRK2) (Homo sapiens, UniProt Q16620); assay: TR-FRET kinase assay, TRKB (NTRK2); settings: Kinase Concentration 0.5 nM; 50 nM ULight-labeled substrate, 200 micromolar ATP, 2 hours
Protocol: as §1, §2

FGFR3 = FGFR3 (Homo sapiens, UniProt P22607); assay: TR-FRET kinase assay, FGFR3; settings: Kinase Concentration 0.25 nM; 50 nM ULight-labeled substrate, 200 micromolar ATP, 2 hours
Protocol: as §1, §2

CTK = molecular target: T1, CTK (Homo sapiens, UniProt P42679); assay: TR-FRET kinase assay, CTK; settings: Kinase Concentration 20 nM; 50 nM ULight-labeled substrate, 200 micromolar ATP, 2 hours
T1 sequence (P42679 1-507): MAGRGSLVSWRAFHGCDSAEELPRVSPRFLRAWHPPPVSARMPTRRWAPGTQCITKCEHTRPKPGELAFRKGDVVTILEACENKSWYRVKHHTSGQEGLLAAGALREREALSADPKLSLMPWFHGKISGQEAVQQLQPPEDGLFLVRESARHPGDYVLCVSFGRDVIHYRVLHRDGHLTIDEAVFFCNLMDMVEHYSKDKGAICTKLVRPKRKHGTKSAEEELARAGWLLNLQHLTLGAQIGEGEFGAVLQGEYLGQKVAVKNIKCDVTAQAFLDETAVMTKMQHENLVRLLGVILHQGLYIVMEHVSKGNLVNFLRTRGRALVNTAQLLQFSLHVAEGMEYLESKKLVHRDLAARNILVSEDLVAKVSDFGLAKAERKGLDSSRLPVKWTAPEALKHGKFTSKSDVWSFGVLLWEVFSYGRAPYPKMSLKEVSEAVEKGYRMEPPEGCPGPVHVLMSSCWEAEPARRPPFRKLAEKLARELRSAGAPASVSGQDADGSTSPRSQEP
Protocol: as §1, §2

FRK = FRK (Homo sapiens, UniProt P42685); assay: TR-FRET kinase assay, FRK; settings: Kinase Concentration 0.5 nM; 50 nM ULight-labeled substrate, 200 micromolar ATP, 2 hours
Protocol: as §1, §2

ARG = ARG (Homo sapiens, UniProt P42684); assay: TR-FRET kinase assay, ARG; settings: Kinase Concentration 0.5 nM; 50 nM ULight-labeled substrate, 200 micromolar ATP, 2 hours
Protocol: as §1, §2

FMS (CSFR) = FMS (CSFR) (Homo sapiens, UniProt P07333); assay: TR-FRET kinase assay, FMS (CSFR); settings: Kinase Concentration 0.25 nM; 50 nM ULight-labeled substrate, 200 micromolar ATP, 2 hours
Protocol: as §1, §2

FGFR4 = FGFR4 (Homo sapiens, UniProt P22455); assay: TR-FRET kinase assay, FGFR4; settings: Kinase Concentration 3 nM; 50 nM ULight-labeled substrate, 200 micromolar ATP, 2 hours
Protocol: as §1, §2

FGFR2 = FGFR2 (Homo sapiens, UniProt P21802); assay: TR-FRET kinase assay, FGFR2; settings: Kinase Concentration 0.25 nM; 50 nM ULight-labeled substrate, 200 micromolar ATP, 2 hours
Protocol: as §1, §2

RON = RON (Homo sapiens, UniProt Q04912); assay: TR-FRET kinase assay, RON; settings: Kinase Concentration 0.25 nM; 50 nM ULight-labeled substrate, 200 micromolar ATP, 2 hours
Protocol: as §1, §2

BRK = BRK (Homo sapiens, UniProt Q13882); assay: TR-FRET kinase assay, BRK; settings: Kinase Concentration 3 nM; 50 nM ULight-labeled substrate, 200 micromolar ATP, 2 hours
Protocol: as §1, §2

EphA3 = molecular target: T2, EphA3 (Homo sapiens, UniProt P29320); assay: TR-FRET kinase assay, EphA3; settings: Kinase Concentration 0.5 nM; 50 nM ULight-labeled substrate, 200 micromolar ATP, 2 hours
T2 sequence (P29320 21-983): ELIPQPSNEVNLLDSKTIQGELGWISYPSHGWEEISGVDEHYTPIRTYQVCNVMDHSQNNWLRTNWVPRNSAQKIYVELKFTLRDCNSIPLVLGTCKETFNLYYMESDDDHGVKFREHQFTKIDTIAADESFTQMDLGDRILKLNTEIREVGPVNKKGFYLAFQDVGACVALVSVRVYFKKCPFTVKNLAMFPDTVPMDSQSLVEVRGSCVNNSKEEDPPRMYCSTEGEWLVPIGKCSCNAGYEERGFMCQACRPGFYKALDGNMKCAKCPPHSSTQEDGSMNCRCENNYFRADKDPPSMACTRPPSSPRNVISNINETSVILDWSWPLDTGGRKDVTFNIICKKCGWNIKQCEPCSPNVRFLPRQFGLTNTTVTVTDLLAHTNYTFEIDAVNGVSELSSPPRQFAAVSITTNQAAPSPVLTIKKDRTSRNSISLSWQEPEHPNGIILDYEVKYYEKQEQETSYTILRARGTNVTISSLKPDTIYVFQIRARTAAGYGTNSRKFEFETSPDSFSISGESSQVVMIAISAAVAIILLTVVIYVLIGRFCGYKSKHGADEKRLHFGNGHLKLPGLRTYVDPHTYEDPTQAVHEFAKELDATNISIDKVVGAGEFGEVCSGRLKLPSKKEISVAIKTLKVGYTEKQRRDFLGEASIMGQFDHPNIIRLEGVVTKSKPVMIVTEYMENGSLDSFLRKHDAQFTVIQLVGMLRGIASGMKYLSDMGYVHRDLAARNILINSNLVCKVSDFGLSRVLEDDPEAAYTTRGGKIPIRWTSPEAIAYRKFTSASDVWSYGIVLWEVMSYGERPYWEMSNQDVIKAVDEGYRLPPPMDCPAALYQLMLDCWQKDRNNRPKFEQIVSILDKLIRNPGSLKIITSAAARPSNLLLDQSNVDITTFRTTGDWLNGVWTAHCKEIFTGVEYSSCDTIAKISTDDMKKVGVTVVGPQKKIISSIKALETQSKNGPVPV
Protocol: as §1, §2

Sequence of MET (P08581 25-1390): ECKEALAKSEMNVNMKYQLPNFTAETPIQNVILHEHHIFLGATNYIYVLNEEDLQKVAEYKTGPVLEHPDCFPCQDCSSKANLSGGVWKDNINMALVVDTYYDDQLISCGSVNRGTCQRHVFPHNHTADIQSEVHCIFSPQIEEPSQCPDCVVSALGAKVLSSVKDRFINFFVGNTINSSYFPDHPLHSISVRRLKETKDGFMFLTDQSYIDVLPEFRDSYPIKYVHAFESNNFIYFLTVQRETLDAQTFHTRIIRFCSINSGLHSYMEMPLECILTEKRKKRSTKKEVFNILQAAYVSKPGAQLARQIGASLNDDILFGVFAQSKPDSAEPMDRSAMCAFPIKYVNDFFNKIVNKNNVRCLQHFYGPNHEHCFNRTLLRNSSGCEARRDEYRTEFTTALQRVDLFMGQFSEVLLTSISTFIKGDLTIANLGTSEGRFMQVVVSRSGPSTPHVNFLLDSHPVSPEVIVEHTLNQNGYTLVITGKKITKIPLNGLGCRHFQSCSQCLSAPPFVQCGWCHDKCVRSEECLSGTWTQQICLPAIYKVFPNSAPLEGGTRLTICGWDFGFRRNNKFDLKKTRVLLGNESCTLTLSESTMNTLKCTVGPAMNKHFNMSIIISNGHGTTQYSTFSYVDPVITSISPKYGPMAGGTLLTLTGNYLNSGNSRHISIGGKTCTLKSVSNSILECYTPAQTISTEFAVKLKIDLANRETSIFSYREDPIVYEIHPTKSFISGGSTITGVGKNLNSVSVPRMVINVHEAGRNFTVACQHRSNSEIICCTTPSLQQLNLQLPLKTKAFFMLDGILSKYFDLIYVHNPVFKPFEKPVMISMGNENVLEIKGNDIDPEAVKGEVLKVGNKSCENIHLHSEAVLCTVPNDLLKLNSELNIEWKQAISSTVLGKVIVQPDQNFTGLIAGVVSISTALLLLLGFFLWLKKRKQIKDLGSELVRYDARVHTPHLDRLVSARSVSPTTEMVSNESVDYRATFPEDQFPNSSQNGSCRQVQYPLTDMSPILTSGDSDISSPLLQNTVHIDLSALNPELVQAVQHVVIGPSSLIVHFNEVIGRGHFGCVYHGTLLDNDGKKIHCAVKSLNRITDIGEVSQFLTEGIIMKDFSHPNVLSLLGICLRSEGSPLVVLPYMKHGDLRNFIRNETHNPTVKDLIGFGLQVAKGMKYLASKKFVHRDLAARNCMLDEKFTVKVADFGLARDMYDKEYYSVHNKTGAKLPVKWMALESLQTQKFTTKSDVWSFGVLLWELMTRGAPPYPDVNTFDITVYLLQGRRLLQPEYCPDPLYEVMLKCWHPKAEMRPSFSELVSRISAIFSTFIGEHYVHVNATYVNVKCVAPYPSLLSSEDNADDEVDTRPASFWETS
Sequence of FRK (P42685 whole entry, species assumed): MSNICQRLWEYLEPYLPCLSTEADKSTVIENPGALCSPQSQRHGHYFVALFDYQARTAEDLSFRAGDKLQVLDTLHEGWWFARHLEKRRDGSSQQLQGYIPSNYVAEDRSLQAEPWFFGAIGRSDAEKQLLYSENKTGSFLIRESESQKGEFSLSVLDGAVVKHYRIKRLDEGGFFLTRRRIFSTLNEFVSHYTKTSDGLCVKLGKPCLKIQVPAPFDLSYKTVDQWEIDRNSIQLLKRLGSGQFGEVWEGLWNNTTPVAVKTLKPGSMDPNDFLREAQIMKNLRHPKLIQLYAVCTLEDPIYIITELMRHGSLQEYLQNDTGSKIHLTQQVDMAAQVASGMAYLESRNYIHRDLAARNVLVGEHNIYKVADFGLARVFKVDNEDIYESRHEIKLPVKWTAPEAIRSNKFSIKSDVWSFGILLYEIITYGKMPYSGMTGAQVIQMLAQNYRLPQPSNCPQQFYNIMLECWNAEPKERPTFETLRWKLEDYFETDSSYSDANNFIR
Sequence of ARG (P42684 whole entry): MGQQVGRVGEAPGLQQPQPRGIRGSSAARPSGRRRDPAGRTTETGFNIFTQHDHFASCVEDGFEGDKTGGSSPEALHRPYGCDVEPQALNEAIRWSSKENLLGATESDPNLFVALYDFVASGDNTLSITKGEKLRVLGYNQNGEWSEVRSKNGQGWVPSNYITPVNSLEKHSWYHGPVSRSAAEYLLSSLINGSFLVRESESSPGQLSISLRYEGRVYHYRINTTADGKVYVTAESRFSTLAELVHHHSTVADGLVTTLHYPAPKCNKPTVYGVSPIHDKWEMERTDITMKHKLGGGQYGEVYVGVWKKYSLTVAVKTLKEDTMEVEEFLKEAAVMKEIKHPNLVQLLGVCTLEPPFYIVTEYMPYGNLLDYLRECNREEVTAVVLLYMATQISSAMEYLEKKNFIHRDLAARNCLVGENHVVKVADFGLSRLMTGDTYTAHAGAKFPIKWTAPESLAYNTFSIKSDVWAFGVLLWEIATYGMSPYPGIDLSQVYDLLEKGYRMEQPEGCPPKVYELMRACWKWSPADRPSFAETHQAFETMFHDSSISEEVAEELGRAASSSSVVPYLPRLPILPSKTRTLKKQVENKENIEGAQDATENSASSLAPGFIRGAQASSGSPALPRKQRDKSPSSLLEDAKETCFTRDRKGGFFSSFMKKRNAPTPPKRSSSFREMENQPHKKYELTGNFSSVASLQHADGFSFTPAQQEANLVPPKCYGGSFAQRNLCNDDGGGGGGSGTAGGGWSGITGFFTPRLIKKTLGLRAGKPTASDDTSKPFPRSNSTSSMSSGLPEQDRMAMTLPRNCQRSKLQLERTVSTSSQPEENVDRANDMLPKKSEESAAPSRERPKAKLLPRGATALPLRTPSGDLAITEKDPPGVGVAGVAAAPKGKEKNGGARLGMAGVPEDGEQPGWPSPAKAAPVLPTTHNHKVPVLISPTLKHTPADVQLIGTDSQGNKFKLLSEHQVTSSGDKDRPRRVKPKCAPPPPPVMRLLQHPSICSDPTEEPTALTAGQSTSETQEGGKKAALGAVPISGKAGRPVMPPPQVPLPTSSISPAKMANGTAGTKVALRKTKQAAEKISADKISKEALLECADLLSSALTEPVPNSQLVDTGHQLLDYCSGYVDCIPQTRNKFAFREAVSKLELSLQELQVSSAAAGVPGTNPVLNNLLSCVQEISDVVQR
Sequence of FGFR3 (P22607 23-806, species assumed): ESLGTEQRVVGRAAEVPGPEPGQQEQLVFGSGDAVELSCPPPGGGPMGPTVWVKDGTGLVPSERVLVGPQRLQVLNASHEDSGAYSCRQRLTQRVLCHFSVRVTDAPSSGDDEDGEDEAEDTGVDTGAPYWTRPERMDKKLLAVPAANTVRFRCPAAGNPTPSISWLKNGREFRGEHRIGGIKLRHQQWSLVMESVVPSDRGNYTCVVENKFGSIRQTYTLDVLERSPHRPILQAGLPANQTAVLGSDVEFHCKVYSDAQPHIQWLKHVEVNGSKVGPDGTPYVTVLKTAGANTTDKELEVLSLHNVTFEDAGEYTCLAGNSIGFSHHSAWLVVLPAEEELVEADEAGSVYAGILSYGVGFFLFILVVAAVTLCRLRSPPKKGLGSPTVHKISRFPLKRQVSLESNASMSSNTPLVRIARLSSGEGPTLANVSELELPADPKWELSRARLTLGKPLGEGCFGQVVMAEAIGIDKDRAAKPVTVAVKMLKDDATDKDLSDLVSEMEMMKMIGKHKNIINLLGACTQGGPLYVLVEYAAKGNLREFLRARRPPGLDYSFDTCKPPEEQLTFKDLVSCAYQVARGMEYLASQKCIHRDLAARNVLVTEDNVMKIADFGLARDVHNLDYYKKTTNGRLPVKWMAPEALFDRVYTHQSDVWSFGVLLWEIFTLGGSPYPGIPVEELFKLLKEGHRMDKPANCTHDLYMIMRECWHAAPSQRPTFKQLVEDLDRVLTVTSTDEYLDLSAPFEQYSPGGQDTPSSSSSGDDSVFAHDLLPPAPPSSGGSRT
Sequence of ABL (P00519 whole entry, species assumed): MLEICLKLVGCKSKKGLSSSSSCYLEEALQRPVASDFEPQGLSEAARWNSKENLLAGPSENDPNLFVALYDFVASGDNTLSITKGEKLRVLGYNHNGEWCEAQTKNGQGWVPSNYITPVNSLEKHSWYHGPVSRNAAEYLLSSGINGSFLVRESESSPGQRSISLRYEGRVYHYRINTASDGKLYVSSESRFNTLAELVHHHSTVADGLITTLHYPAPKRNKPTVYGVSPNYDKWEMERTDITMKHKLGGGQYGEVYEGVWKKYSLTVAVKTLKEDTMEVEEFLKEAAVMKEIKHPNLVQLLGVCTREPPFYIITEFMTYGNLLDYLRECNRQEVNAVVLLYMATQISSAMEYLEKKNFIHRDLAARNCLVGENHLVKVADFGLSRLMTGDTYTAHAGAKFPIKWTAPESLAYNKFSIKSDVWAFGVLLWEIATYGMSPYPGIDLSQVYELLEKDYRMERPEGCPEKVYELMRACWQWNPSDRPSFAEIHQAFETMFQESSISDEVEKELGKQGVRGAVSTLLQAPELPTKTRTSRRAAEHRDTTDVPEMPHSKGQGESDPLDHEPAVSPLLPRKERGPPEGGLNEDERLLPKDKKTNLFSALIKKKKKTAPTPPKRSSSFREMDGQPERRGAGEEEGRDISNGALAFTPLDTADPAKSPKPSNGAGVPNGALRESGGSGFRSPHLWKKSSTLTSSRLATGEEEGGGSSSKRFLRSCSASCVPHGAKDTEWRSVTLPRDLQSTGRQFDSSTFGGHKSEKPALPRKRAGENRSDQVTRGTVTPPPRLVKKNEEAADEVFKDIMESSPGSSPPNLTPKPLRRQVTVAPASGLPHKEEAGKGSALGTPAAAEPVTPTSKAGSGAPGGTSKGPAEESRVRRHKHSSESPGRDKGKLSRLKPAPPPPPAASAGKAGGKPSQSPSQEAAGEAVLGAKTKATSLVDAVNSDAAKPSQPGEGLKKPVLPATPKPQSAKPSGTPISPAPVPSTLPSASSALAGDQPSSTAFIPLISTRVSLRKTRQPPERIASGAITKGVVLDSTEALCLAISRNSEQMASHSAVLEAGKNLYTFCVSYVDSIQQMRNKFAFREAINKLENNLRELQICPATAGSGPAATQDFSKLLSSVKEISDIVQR

C AYE AYE AYE K EYA EYA EYA K AYA EYE R (CAYEAYEAYEKEYAEYAEYAKAYAEYER; tyrosine kinase substrate peptide) [BRB1]
Signal to Noise ratio with BRB1 Peptide (MET): 24.2
Signal to Noise ratio with BRB1 Peptide (SYK): 24.6
Signal to Noise ratio with BRB1 Peptide (ABL): 4.1
Signal to Noise ratio with BRB1 Peptide (JAK2): 35.5
Signal to Noise ratio with BRB1 Peptide (BLK): 31.0
Signal to Noise ratio with BRB1 Peptide (TRKB (NTRK2)): 28.0
Signal to Noise ratio with BRB1 Peptide (FGFR3): 24.4
Signal to Noise ratio with BRB1 Peptide (CTK): 2.5
Signal to Noise ratio with BRB1 Peptide (FRK): 9.7
Signal to Noise ratio with BRB1 Peptide (ARG): 10.6
Signal to Noise ratio with BRB1 Peptide (FMS (CSFR)): 3.0
Signal to Noise ratio with BRB1 Peptide (FGFR4): 17.7
Signal to Noise ratio with BRB1 Peptide (FGFR2): 27.1
Signal to Noise ratio with BRB1 Peptide (RON): 3.5
Signal to Noise ratio with BRB1 Peptide (BRK): 2.4
Signal to Noise ratio with BRB1 Peptide (EphA3): 22.4
